Experimental data reported in the supplement of paper PMC7877785.
± gives the uncertainty stated by the source.

Experiment: self-splicing fitness, log relative to wild type (ln ratio); higher = more splicing; Tetrahymena group I intron in knt gene, E. coli kanamycin selection, DiMSum; sequences stand for … in CUCUCU…GGAGGGAAAAGUUAUCAGGCAUGCACCUGGUAGCUAGUCUUUAAACCAAUAGAUUGCAUCGGUUUAAAAGGCAAGACCGUCAAAUUGCGGGAAAGGGGUCAACAGCCGUUCAGUACCAAGUCUCAGGGGAAACUUUGAGAUGGCCUUGCAAAGGGUAUGGUAAUAAGCUGACGGACAUGGUCCUAACCACGCAGCCAAGUCCUAAGUCAACAGAUCUUCUGUUGAUAUGGAUGCAGUUCACAGACUAAAUGUCGGUCGGGGAAGAUGUAUUCUUCUCAUAAGAUAUAGUCGGACCUCUCCUUAAUGGGAGCUAGCGGAUGAAGUGAUGCAACACUGGAGCCGCUGGGAACUAAUUUGUAUGCGAAAGUAUAUUGAUUAGUUUUGGAGUACUCGUGGUCG
In short: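 The eight P1ex-region nucleotides of an intron in the knt kanamycin-resistance gene on pET-22b(+) were all randomised and the library put into E. coli BL21(DE3). Six replicate transformations were grown overnight at 37°C or 30°C on LB agar with or without 25 μg/mL kanamycin, together with 100 μg/mL carbenicillin, 50 μM IPTG and 0.2% rhamnose. Colonies were pooled and amplicon-sequenced on an Illumina HiSeq 2500. Fitness from DiMSum is the error-weighted combination of wild-type-normalised replicate fold changes, kanamycin over none.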

Sequence	self-splicing fitness (ln) (30 °C)	self-splicing fitness (ln) (37 °C)
UAGGAGCAAUAUUACGGACU	-3.22 ± 0.25	-2.41 ± 0.22
ACUAAGCAAUAUUACGAUAU	-1.39 ± 0.12	-2.28 ± 0.16
UUGGAGCAAUAUUACGACUA	-1.58 ± 0.41	–
GUACAGCAAUAUUACGUGAG	-1.42 ± 0.074	-0.954 ± 0.093
GUGCAGCAAUAUUACGUGGC	-3.55 ± 0.27	-1.8 ± 0.15
CCCGAGCAAUAUUACGCAAG	-2.73 ± 0.27	–
CUAUAGCAAUAUUACGGAGU	-4.03 ± 0.28	-2.86 ± 0.26
CGUAAGCAAUAUUACGCAAA	–	-1.48 ± 0.34
ACCCAGCAAUAUUACGAGUC	-4.16 ± 0.15	-2.3 ± 0.15
CCGAAGCAAUAUUACGUCUC	-3.9 ± 0.28	-3.47 ± 0.2
AUUAAGCAAUAUUACGGGGG	-2.97 ± 0.27	-2.33 ± 0.33
CAAGAGCAAUAUUACGCUAU	-3.62 ± 0.38	-2.19 ± 0.27
UUUCAGCAAUAUUACGGAGA	-1.26 ± 0.14	-1.13 ± 0.22
UUGCAGCAAUAUUACGUUUG	-2.14 ± 0.14	-0.998 ± 0.14
GUCUAGCAAUAUUACGAGCG	-2.05 ± 0.14	-0.599 ± 0.16
UAAUAGCAAUAUUACGUUUU	-4.25 ± 0.29	-2.73 ± 0.17
ACCUAGCAAUAUUACGUACG	-2.46 ± 0.16	-1.02 ± 0.14
CUUUAGCAAUAUUACGCUAU	-3.66 ± 0.31	-1.68 ± 0.23
ACUCAGCAAUAUUACGCAAC	-2.14 ± 0.17	-2.43 ± 0.26
AUGAAGCAAUAUUACGGCCC	-0.0924 ± 0.12	0.156 ± 0.17

Sequence	self-splicing fitness (ln) (30 °C)	self-splicing fitness (ln) (37 °C)
GGAUAGCAAUAUUACGUGUC	-3.16 ± 0.28	–
GUGGAGCAAUAUUACGAUCC	-2.49 ± 0.2	-1.13 ± 0.28
UAGCAGCAAUAUUACGUUAA	-2.13 ± 0.099	-1.15 ± 0.084
UGGCAGCAAUAUUACGAGUU	-4.06 ± 0.3	-2.48 ± 0.24
CUGCAGCAAUAUUACGCAGA	-2.32 ± 0.31	-2.97 ± 0.38
GCUAAGCAAUAUUACGUGCA	-0.433 ± 0.094	-0.212 ± 0.1
CACAAGCAAUAUUACGGCCA	-1.1 ± 0.13	-0.928 ± 0.16
GGUGAGCAAUAUUACGAACU	-2.18 ± 0.42	–
CACGAGCAAUAUUACGAACU	–	-1.72 ± 0.38
GUACAGCAAUAUUACGUCGG	-3.45 ± 0.27	-2.4 ± 0.25
GGUGAGCAAUAUUACGCUCU	-3.87 ± 0.42	-2.42 ± 0.41
CAUCAGCAAUAUUACGGGCC	-3.02 ± 0.45	-2.29 ± 0.47
AGCCAGCAAUAUUACGAUAU	-3.25 ± 0.16	-1.83 ± 0.14
CACAAGCAAUAUUACGACCC	-2.15 ± 0.4	-0.814 ± 0.24
CGUUAGCAAUAUUACGCGUU	-4.08 ± 0.13	-2.39 ± 0.12
ACUUAGCAAUAUUACGGGCU	-1.74 ± 0.084	-0.866 ± 0.11
UAGGAGCAAUAUUACGCUCA	-1.55 ± 0.19	-1.37 ± 0.16
UUUUAGCAAUAUUACGGGCG	-0.356 ± 0.12	-0.216 ± 0.19
CCUAAGCAAUAUUACGACAU	-3.909 ± 0.025	-2.82 ± 0.038
GCGCAGCAAUAUUACGUUGA	-0.0364 ± 0.078	-0.504 ± 0.085
